The subject of assay [1] is E. coli LigA. The class given is biochemical. The conditions noted are these: for rate of ligase adenylation (kinetic pattern): 1 μM [32P-AMP]NAD+, 15-120 s; for ligase adenylation (ligase-AMP formation) with NAD+: qualitative. As for the experimental part:
(§1) FIG. 12A: Aliquots (5 μg) of wild-type (WT) E. coli ligase, N-terminal deletion mutants NΔ38 and NΔ78, and the full-length ligase proteins containing the indicated alanine mutations in domain Ia were analyzed by SDS-PAGE. A Coomassie blue-stained gel is shown. FIG. 12B: Ligase adenylation reaction mixtures (20 μl) containing 50 mM Tris-HCl (pH 7.5), 5 mM DTT, 5 mM MgCl2, 1 μM [α-^32P]NAD^+ and 8 pmol of WT ligase, NΔ38, NΔ78, or the indicated alanine mutants were incubated for 5 min at 37° C. The reaction products were resolved by SDS-PAGE and visualized by autoradiography. FIG. 12C: Nick joining reaction mixtures (20 μl) containing 50 mM Tris-HCl (pH 7.5), 10 mM (NH4)2SO4, 5 mM DTT, 5 mM MgCl2, 20 μM NAD^+, 1 pmol of ^32P-labeled nicked DNA, and increasing amounts of WT ligase or the indicated alanine mutants were incubated for 10 min at 22° C. The extents of ligation are plotted as a function of input protein.
FIG. 15A: Aliquots (5 μg) of wild-type (WT) E. coli ligase and proteins containing the indicated mutations in domain Ia were analyzed by SDS-PAGE. The Coomassie blue-stained gel is shown. The positions and sizes (in kDa) of marker proteins are indicated on the left. FIG. 15B: Ligase adenylation reaction mixtures (20 μl) containing 50 mM Tris-HCl (pH 7.5), 5 mM DTT, 5 mM MgCl2, 1 μM [α-^32P]NAD^+ and 8 pmol of WT ligase or the indicated mutants were incubated for 5 min at 37° C. The reaction products were resolved by SDS-PAGE and visualized by autoradiography.
Reaction mixtures containing (per 20 μl) 50 mM Tris-HCl (pH 7.5), 5 mM DTT, 5 mM MgCl2, 1 μM [^32P-AMP]NAD^+ and 8 pmol of ligase were incubated at 22° C. Aliquots (20 μl) were withdrawn at 15, 30, 60 and 120 s and then quenched immediately with SDS. The products were analyzed by SDS-PAGE. Formation of the ligase-[^32P]AMP adduct is plotted as a function of time.
The first step in DNA ligation involves formation of a covalent enzyme-adenylate intermediate.

Assay [2] has as its system E. coli LigA. The format is biochemical. The settings on record: specific activity by protein titration under steady-state conditions, normalized to wild-type ligase. As for the experimental part:
as §1
To further probe the role of domain Ia in NAD^+ recognition and nucleotidyl transfer, single alanine substitutions were introduced at six positions in the Ia domain of E. coli LigA. The six mutated Eco ligase residues—Glu10, Tyr22, His23, Asp32, Tyr35, and Asp36—correspond to the six residues that were subjected to alanine scanning mutagenesis in AmEPV ligase (FIG. 11). […] The conserved positions are denoted by shaded boxes in FIG. 11. The Eco ligase mutants E10A, Y22A, H23A, D32A, Y35A, and D36A were produced in E. coli and purified by Ni-agarose chromatography in parallel with wild-type ligase (FIG. 12A).
To evaluate the roles of charge, hydrogen bonding potential, and steric constraints in the functions of the domain Ia residues implicated in the step 1 reaction with NAD^+, the effects of conservative substitutions were tested. Tyr22 and Tyr35 were replaced by Phe and Ser, His23 was changed to Tyr, and Asp32 and Asp36 were mutated to Glu and Asn. The recombinant mutant ligases were purified from soluble bacterial extracts by Ni-agarose chromatography (FIG. 15A). The specific activity of each mutant was determined under steady-state conditions by protein titration and normalized to the specific activity of wild-type ligase.

B1: D32N: E. coli LigA with Asp32 mutated to Asn (protein, UniProt P15042 1-671, looked up, variant D32N)
DNA ligase: MESIEQQLTELRTTLRHHEYLYHVMDAPEIPNAEYDRLMRELRELETKHPELITPDSPTQRVGAAPLAAFSQIRHEVPMLSLDNVFDEESFLAFNKRVQDRLKNNEKVTWCCELKLDGLAVSILYENGVLVSAATRGDGTTGEDITSNVRTIRAIPLKLHGENIPARLEVRGEVFLPQAGFEKINEDARRTGGKVFANPRNAAAGSLRQLDPRITAKRPLTFFCYGVGVLEGGELPDTHLGRLLQFKKWGLPVSDRVTLCESAEEVLAFYHKVEEDRPTLGFDIDGVVIKVNSLAQQEQLGFVARAPRWAVAFKFPAQEQMTFVRDVEFQVGRTGAITPVARLEPVHVAGVLVSNATLHNADEIERLGLRIGDKVVIRRAGDVIPQVVNVVLSERPEDTREVVFPTHCPVCGSDVERVEGEAVARCTGGLICGAQRKESLKHFVSRRAMDVDGMGDKIIDQLVEKEYVHTPADLFKLTAGKLTGLERMGPKSAQNVVNALEKAKETTFARFLYALGIREVGEATAAGLAAYFGTLEALEAASIEELQKVPDVGIVVASHVHNFFAEESNRNVISELLAEGVHWPAPIVINAEEIDSPFAGKTVVLTGSLSQMSRDDAKARLVELGAKVAGSVSKKTDLVIAGEAAGSKLAKAQELGIEVIDEAEMLRLLGS
For the molecule B1, in the assay with E. coli LigA [1], the “rate of ligase adenylation (kinetic pattern)” value was “faster than D32E” and the “ligase adenylation (ligase-AMP formation) with NAD+” value (“ligase adenylation … with NAD+” below) is recorded as “partially active”. In addition, the “Nick Joining Activity (% of WT)” value with E. coli LigA [2] is recorded as 9 % of WT.

B2: D36E: E. coli LigA with Asp36 mutated to Glu (protein, UniProt P15042 1-671, looked up, variant D36E)
DNA ligase: MESIEQQLTELRTTLRHHEYLYHVMDAPEIPDAEYERLMRELRELETKHPELITPDSPTQRVGAAPLAAFSQIRHEVPMLSLDNVFDEESFLAFNKRVQDRLKNNEKVTWCCELKLDGLAVSILYENGVLVSAATRGDGTTGEDITSNVRTIRAIPLKLHGENIPARLEVRGEVFLPQAGFEKINEDARRTGGKVFANPRNAAAGSLRQLDPRITAKRPLTFFCYGVGVLEGGELPDTHLGRLLQFKKWGLPVSDRVTLCESAEEVLAFYHKVEEDRPTLGFDIDGVVIKVNSLAQQEQLGFVARAPRWAVAFKFPAQEQMTFVRDVEFQVGRTGAITPVARLEPVHVAGVLVSNATLHNADEIERLGLRIGDKVVIRRAGDVIPQVVNVVLSERPEDTREVVFPTHCPVCGSDVERVEGEAVARCTGGLICGAQRKESLKHFVSRRAMDVDGMGDKIIDQLVEKEYVHTPADLFKLTAGKLTGLERMGPKSAQNVVNALEKAKETTFARFLYALGIREVGEATAAGLAAYFGTLEALEAASIEELQKVPDVGIVVASHVHNFFAEESNRNVISELLAEGVHWPAPIVINAEEIDSPFAGKTVVLTGSLSQMSRDDAKARLVELGAKVAGSVSKKTDLVIAGEAAGSKLAKAQELGIEVIDEAEMLRLLGS
For B2, in the assay with E. coli LigA [1], the “ligase adenylation … with NAD+” value is given as “more severely affected”. In addition, the “Nick Joining Activity (% of WT)” value with E. coli LigA [2] is reported as 4 % of WT.

B3: D36N: E. coli LigA with Asp36 mutated to Asn (protein, UniProt P15042 1-671, looked up, variant D36N)
DNA ligase: MESIEQQLTELRTTLRHHEYLYHVMDAPEIPDAEYNRLMRELRELETKHPELITPDSPTQRVGAAPLAAFSQIRHEVPMLSLDNVFDEESFLAFNKRVQDRLKNNEKVTWCCELKLDGLAVSILYENGVLVSAATRGDGTTGEDITSNVRTIRAIPLKLHGENIPARLEVRGEVFLPQAGFEKINEDARRTGGKVFANPRNAAAGSLRQLDPRITAKRPLTFFCYGVGVLEGGELPDTHLGRLLQFKKWGLPVSDRVTLCESAEEVLAFYHKVEEDRPTLGFDIDGVVIKVNSLAQQEQLGFVARAPRWAVAFKFPAQEQMTFVRDVEFQVGRTGAITPVARLEPVHVAGVLVSNATLHNADEIERLGLRIGDKVVIRRAGDVIPQVVNVVLSERPEDTREVVFPTHCPVCGSDVERVEGEAVARCTGGLICGAQRKESLKHFVSRRAMDVDGMGDKIIDQLVEKEYVHTPADLFKLTAGKLTGLERMGPKSAQNVVNALEKAKETTFARFLYALGIREVGEATAAGLAAYFGTLEALEAASIEELQKVPDVGIVVASHVHNFFAEESNRNVISELLAEGVHWPAPIVINAEEIDSPFAGKTVVLTGSLSQMSRDDAKARLVELGAKVAGSVSKKTDLVIAGEAAGSKLAKAQELGIEVIDEAEMLRLLGS
Consider B3, for which, in the assay on E. coli LigA [1], the “rate of ligase adenylation (kinetic pattern)” value is recorded as “faster than D36E” and the “ligase adenylation … with NAD+” value is listed as “partially active”. Also, the “Nick Joining Activity (% of WT)” value in the assay on E. coli LigA [2] is 12 % of WT.

B4: D32E: E. coli LigA with Asp32 mutated to Glu (protein, UniProt P15042 1-671, looked up, variant D32E)
DNA ligase: MESIEQQLTELRTTLRHHEYLYHVMDAPEIPEAEYDRLMRELRELETKHPELITPDSPTQRVGAAPLAAFSQIRHEVPMLSLDNVFDEESFLAFNKRVQDRLKNNEKVTWCCELKLDGLAVSILYENGVLVSAATRGDGTTGEDITSNVRTIRAIPLKLHGENIPARLEVRGEVFLPQAGFEKINEDARRTGGKVFANPRNAAAGSLRQLDPRITAKRPLTFFCYGVGVLEGGELPDTHLGRLLQFKKWGLPVSDRVTLCESAEEVLAFYHKVEEDRPTLGFDIDGVVIKVNSLAQQEQLGFVARAPRWAVAFKFPAQEQMTFVRDVEFQVGRTGAITPVARLEPVHVAGVLVSNATLHNADEIERLGLRIGDKVVIRRAGDVIPQVVNVVLSERPEDTREVVFPTHCPVCGSDVERVEGEAVARCTGGLICGAQRKESLKHFVSRRAMDVDGMGDKIIDQLVEKEYVHTPADLFKLTAGKLTGLERMGPKSAQNVVNALEKAKETTFARFLYALGIREVGEATAAGLAAYFGTLEALEAASIEELQKVPDVGIVVASHVHNFFAEESNRNVISELLAEGVHWPAPIVINAEEIDSPFAGKTVVLTGSLSQMSRDDAKARLVELGAKVAGSVSKKTDLVIAGEAAGSKLAKAQELGIEVIDEAEMLRLLGS
For the molecule B4, the “ligase adenylation … with NAD+” value with E. coli LigA [1] was “more severely affected”. Further, the “Nick Joining Activity (% of WT)” value with E. coli LigA [2] was 0.4 % of WT.
